This is an account of results in PMC3762824.

Assay [1] concerns the target Argonaute 2 (human (endogenous in U937, U1, J1.1, HEK293T)) (UniProt Q9UKV8).
Assay [2] shares this target. The source holds these as a separate data set.

Sequence of UniProt Q9UKV8 (Q9UKV8 whole entry): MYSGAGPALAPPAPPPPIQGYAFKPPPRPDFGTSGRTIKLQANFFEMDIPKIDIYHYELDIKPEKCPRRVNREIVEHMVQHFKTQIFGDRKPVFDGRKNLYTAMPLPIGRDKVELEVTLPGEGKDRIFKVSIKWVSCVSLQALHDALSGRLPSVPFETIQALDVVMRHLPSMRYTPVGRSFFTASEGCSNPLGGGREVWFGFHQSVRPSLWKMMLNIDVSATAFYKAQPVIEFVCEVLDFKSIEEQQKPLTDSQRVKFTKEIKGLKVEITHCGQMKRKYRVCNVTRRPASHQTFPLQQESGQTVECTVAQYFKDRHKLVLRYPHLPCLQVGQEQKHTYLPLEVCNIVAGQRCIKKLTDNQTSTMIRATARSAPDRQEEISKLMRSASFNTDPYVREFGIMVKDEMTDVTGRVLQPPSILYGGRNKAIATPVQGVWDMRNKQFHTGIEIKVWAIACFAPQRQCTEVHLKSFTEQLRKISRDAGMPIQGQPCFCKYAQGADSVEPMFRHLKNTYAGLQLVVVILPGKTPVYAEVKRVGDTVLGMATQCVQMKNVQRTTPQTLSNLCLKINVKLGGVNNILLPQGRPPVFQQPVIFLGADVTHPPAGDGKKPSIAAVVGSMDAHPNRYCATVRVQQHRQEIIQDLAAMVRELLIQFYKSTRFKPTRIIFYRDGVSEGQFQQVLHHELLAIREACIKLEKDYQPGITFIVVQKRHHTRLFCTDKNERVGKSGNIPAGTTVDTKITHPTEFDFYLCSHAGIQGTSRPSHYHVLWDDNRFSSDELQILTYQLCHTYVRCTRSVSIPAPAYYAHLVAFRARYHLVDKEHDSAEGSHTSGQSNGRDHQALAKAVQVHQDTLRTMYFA

As for wild type Nef (natural protein), the RLuc-let7a reporter luciferase activity against the empty vector, U937 or HEK293T cells co-transfected with the Nef expression vector in assay [1] amounted to 70%.
Regarding “Nef-EYFP fusion protein (natural protein)”, in assay [2], the slicer assay: cleavage of 32P-labelled let-7a RNA by Ago2 immunoprecipitates from U937/Nef-EYFP cells compared to U937/EYFP cells was less than 50%.
